As a reminder, the stoichiometry N is a count of units in the complex or per binding partner.

The target of test [1] is CPN60β1 homo-oligomer (Chlamydomonas reinhardtii). Kind of test: crystal structure; apo CPN60β1 homo-oligomer, 3.8 Å, space group P21, molecular replacement with apo GroEL.
Test [2] has the same target.
In a further test the target is T1, GroEL (E. coli, UniProt P0A6F5 1-548).
T1 construct: GroEL, group I chaperonin of E. coli; Purification of proteins is in Additional file 1; copies: 14
Nature of the test: SEC; gel filtration, Superdex 200; 2 μM chaperonin and 10 μM GroES; buffer with 50 μM AMP-PNP; fractions on SDS-PAGE, Coomassie. As to conditions: both partners purified. For orientation: SEC sorts molecules by how far they enter the pores of the column.

In test [1], CPN60β1 homo-oligomer (natural protein) registered a stoichiometry N of 14 subunits.

“mitochondrial co-chaperonin Hsp10 from mouse (from UniProt Q64433 1-102) (natural protein)” gave an inhibition of the ATPase activity of CPN60β1 (0.2 μM chaperonin, 0.4 μM co-chaperonin, 25 °C) in test [2] of 50%.

B1: GroES (natural protein, E. coli, UniProt P0A6F9 1-97, looked up)
chain: MNIRPLHDRVIVKRKEVETKSAGGIVLTGSAAAKSTRGEVLAVGNGRILENGEVKPLDVKVGDIVIFNDGYGVKSEKIDNEEVLIMSESDILAIVEA
notes: GroES, co-chaperonin of E. coli; Purification of proteins is in Additional file 1
For the molecule B1, the binding result with GroEL is reported as “binds”.

Values taken from paper PMC4828840, “Structural insight into the cooperation of chloroplast chaperonin subunits” (BMC Biology, 2016).
